Assay results published in the RNAGym collection of RNA variant scans (doi:10.1073/pnas.2313332121).

B1: TPR t1 (parent)
chain: GACCAAUCUGCCCUCAGAGCUCGAGAACAUCUUCGGAUGCAGAGGAGGCAGGCUUCGGUGGCGCGAUAGCGCCAACGUCCUCAACCUCCAAUGCAUCCCACCACAUGAUGAUGCCUGAAGAGCCUUGGUUUUUUG

Variants of: B1
Assay: polymerase ribozyme fitness, log enrichment relative to wild type (log ratio); higher = more active; in vitro selection for triplet polymerase activity
In short: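 Fitness is a logarithmic measure of how a genotype enriched relative to the wild type, with replicate averages weighted by inverse variance. The logarithm uses base 2, and enrichment came from Illumina sequencing of input and output libraries. Those libraries were PCR-built, transcribed mutants of each subunit of a heterodimeric triplet polymerase ribozyme, passed through one triplicate in vitro selection round that included frozen incubation at −7 °C, gel excision of extended constructs and streptavidin-bead capture. Genotypes were kept only if they had ≥10 input reads and ≥1 read per output.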

Variant | polymerase ribozyme fitness (log ratio)
G58C C85U G120A | 0.436
G58C U81A C123A | -0.0338
G60A C97U G120C | 0.712
U59A A105C U112C | -0.41
G60A G63C G110A G135C | -6.16
G57U U112A | 1.54
U59A C82U A111G | -0.386
G57U C89U | -0.78
G60A G128C | -2.6
G60A G128U | -1.57
G60A C73A A91C G113U | -3.43
U59C A105U | -2.63
U59A C70A C102A | -5.39
G57U A66C | -1.65
G58C A66G | -0.999
U59G A111G | 0.731
U59A U96A | -1.66
U59A G71A C101U C124A | 1.02
G58C C72U | -0.231
U59C C72G A118C | -3.55
U59A A95G U125G | -0.633
G58C C123G G128A | 0.535
U59G G120U C124U | 1.23
U59A U92C | -1.76

Variant | polymerase ribozyme fitness (log ratio)
G57U A84U G110A | -2.32
U59C A91U | -2.41
U59G C86U | 0.709
U59A C72U A83C | -0.884
G58U C64U U78C U96C C124U U126C U133G | -0.65
G58C C62U C114A G127A U130G | -5.36
G57U C82A C123U | 0.32
U59G C85U U87A U106A | -0.914
G60C A84U | -0.735
G58C C94A | -0.207
G60A C104A | -1.89
G60A C73G A108U | -5.92
U59G A68G | -3.01
U59G C72U U106G U112A G128C | -4.15
G57U C62A U125A | -4.41
G57C U116A | -2.89
U59G C88U | 0.0468
G60A U129A | -0.603
G60A C89A C115U | -2.92
U59G C72G | -2.51
G57U C70U C89U | -1.44
U59A G61U G117U | -2.27
G60A G117A | -1.29
G60A A84U C115A U131G | -0.704

Variant | polymerase ribozyme fitness (log ratio)
U59A G60A C80U A95C G120U | -2.35
U59G C80A A121C | -0.276
G58C G61U C94A U116A | -3.54
G57U G60C A84U C99A C101U G117U | -6.95
G57U G69U C115U G128A | -1.11
G60A C72G C101U | -1.15
U59A A121C | 2.1
G57U G69C | -0.847
G57U G69A | -2.73
U59C G69U U81A | -1.48
G60C A95G G120A U130C | 0.59
U59A C104A G110U C115A | -4.57
U59C C94A | -1.01
G58U G63A C94U | -0.678
G60A A121G | 1.66
U59G C101G C114U | -2.59
G58A C73U | -0.192
G60A G69U A121C G122U | -0.0689
G58U U59A A74U C88A | -0.539
G57U G117U | -2.86
U59G C97A | -4.8
G58C C101U | -0.386
G57U C82G | 0.0757
G60A G107U | -4.12

Variant | polymerase ribozyme fitness (log ratio)
G60A G107A | -2.9
U59G C72U C82A G110A | -1.21
G60A C86A U131C | -1.16
U59G C76U G110U | -2.81
G60A U87G C102G G113A | -6.32
G60A C85U | -0.816
G60A C72G | -1.01
U59G C114A | -1.42
G60A U112A G113C | -1.56
G60A C72G U131A | -1.09
U59A U126C | -1.31
G60A A118C | -3.63
G60A G110A | -1.52
G60A A105C C115U | -5.65
G60A A66U A111C | -2.41
G60A C79A G110A | -3.84
U59C C62U C85A C115U | -2.93
U59A G113U | -2.9
G60A U87G C101U | 0.254
G60A C82A G113A | -0.999
U59C A111C G128C | -3.24
G60A U109A U133G | -5.4
U59C G61C | -3.23
G60A A95G | -0.00276

Variant | polymerase ribozyme fitness (log ratio)
G60A A95U | -0.238
G60A C80A G113C | -6.39
G58C C70A G77C G117A | -7.23
U59G U78C C115U U130C | -1.13
G58A A84U | -0.731
G60A G93C | -1.2
G58C U109A C114U | -5.23
G58U C86U G110U G122A | -3.85
U59C U112A | -0.182
U59G C86U U112C | 1.02
U59C U81C U106A | -0.294
G57U A74U C79U | -0.181
G57U C72A C88U | -1.77
G58C C80A U96G | -4.46
G58A U96A | -0.747
G60A G127A | -0.964
G57U A121U | 1.92
U59C C88U | -0.959
G58A A83C | -0.717
G58A U125A | -0.652
U59C C80A U81A | -2.03
G60A C76U | -1
G60A C76G | -2.57
U59A A74U | -0.959

Variant | polymerase ribozyme fitness (log ratio)
G60A G71U | -4.5
G58A C89G | -2.2
G60A G120C G128U | 0.061
U59C C123U | 1.16
G57U U129G | -1.65
G60A C70U | -1.22
G60A C70A | -3.02
U59A C89U | -0.0389
U59C C72U | -0.715
U59A C89U U106A | -0.429
U59A A83U G93A | -0.452
G57U C88A A95U A121U C124U | -1.04
U59G G117U U131G | -4.31
G58A C62U C88U | -0.946
U59C C97U C114G | -4.47
U59C G93U | -1.12
G58U C124A | 1.26
U59A C62U | 0.252
G57U G113U | -1.79
U59C A66U C102U C124U | -4.09
G57U C64U U78G C88A C98U U131C | -2.15
U59G U78A | 0.3
G58A C102U C114A | -4.78
U59G C82A G110A | -0.532

Variant | polymerase ribozyme fitness (log ratio)
G58C C98A | -5.61
U59C G110U | -1.54
G60A A111C C123A | -1.91
G58C U112C A121G | 1.44
G58C C62A G69U A119U | -0.99
U59C G120C G128U U130A | 1.03
G60A C123U | 1.14
G60A C97G G120C | -4.18
U59C C79U C114U | -1.91
G58A G61U | -0.422
G60A A111U | -3.16
G60A C72G U92C G93A | -4.92
G60A U78A A84U G93A C102A | -5
G58U | -0.329
G58C | 0.031
G58A | 0.0445
G57U G107U | -5.11
U59C U87A | -0.642
G58C C62U | -1.01
U59G C72U C86A | -2.04
U59A C104A | -1.75
U59A C86G C98U | -3.38
U59A G77A C79U U87C C114U | -3.41
